Data reported in publication PMC6155069, “Cryo-EM analysis of the T3S injectisome reveals the structure of the needle and open secretin” (Nature Communications, 2018).

B1: PrgH (inner membrane ring protein) in the purified needle complex (natural protein)
chain: METSKEKTITSPGPYIVRLLNSSLNGCEFPLLTGRTLFVVGQSDALTASGQLPDIPADSFFIPLDHGGVNFEIQVDTDATEIILHELKEGNSESRSVQLNTPIQVGELLILIRPESEPWVPEQPEKLETSAKKNEPRFKNGIVAALAGFFILGIGTVGTLWILNSPQRQAAELDSLLGQEKERFQVLPGRDKMLYVAAQNERDTLWARQVLARGDYDKNARVINENEENKRISIWLDTYYPQLAYYRIHFDEPRKPVFWLSRQRNTMSKKELEVLSQKLRALMPYADSVNITLMDDVTAAGQAEAGLKQQALPYSRRNHKGGVTFVIQGALDDVEILRARQFVDSYYRTWGGRYVQFAIELKDDWLKGRSFQYGAEGYIKMSPGHWYFPSPL
notes: PrgH, Salmonella Typhimurium SPI-1 type III secretion system, native protein in the needle complex; Native protein stood in the sample; only 171-364 was modelled; also called PrgH_(171–364); IM rings; source: endogenous, ΔflhD Salmonella SL1344 with HilA on a pBAD plasmid; needle complex purified (LDAO lysis, centrifugation, CsCl gradient, Superose 6); copies: 24
B2: InvG (outer membrane secretin) in the purified needle complex (natural protein)
chain: SEKIPVTGSGFVAKDDSLRTFFDAMALQLKEPVIVSKMAARKKITGNFEFHDPNALLEKLSLQLGLIWYFDGQAIYIYDASEMRNAVVSLRNVSLNEFNNFLKRSGLYNKNYPLRGDNRKGTFYVSGPPVYVDMVVNAATMMDKQNDGIELGRQKIGVMRLNNTFVGDRTYNLRDQKMVIPGIATAIERLLQGEEQPLGNIVSSEPPAMPAFSANGEKGKAANYAGGMSLQEALKQNAAAGNIKIVAYPDTNSLLVKGTAEQVHFIEMLVKALDVAKRHVELSLWIVDLNKSDLERLGTSWSGSITIGDKLGVSLNQSSISTLDGSRFIAAVNALEEKKQATVVSRPVLLTQENVPAIFDNNRTFYTKLIGERNVALEHVTYGTMIRVLPRFSADGQIEMSLDIEDGNDKTPQSDTTTSVDALPEVGRTLISTIARVPHGKSLLVGGYTRDANTDTVQSIPFLGKLPLIGSLFRYSSKNKSNVVRVFMIEPKEIVDPLTPDASESVNNILKQSGAWSGDDKLQKWVRVYLDRGQEAIK
notes: InvG, secretin of the Salmonella Typhimurium SPI-1 type III secretion system, native protein in the needle complex; the final model covers residues 34-557 (N3 domain loop 228-251 disordered); Native protein stood in the sample; 34-557 was modelled (core 176-557 at 3.9 Å); also called InvG_(34–557); InvG_(176–557); source: endogenous, ΔflhD Salmonella SL1344 with HilA on a pBAD plasmid; needle …

How the values were obtained:
[1] = biological target: the molecule itself; experiment: cryo-EM structure; isolated needle filaments, helical reconstruction in Relion, 3.3 Å (helical rise 4.33 Å, turn 63.34°), de novo model
[2] = biological target: B2; experiment: cryo-EM structure; purified needle complex; unsymmetrised C1 reconstruction, 7.4 Å; molecular envelope, needle model fitted with Chimera; conditions: both partners purified
[3] = biological target: the molecule itself; experiment: cryo-EM structure; purified needle complex; symmetrised reconstructions with atomic models: C24 IM rings 3.6 Å; signal subtraction and focussed refinement of the secretin with C15, 4.1 Å (whole) and 3.9 Å (core)
[4] = biological target: B1; experiment: as above; conditions: both partners purified

Binder | binding result [1] | binding result [2] | stoichiometry N [3] | binding result [4]
PrgI (needle protein), isolated needle filament (natural protein, PrgI, needle protein of the Salmonella Typhimurium SPI-1 type III secretion system; the model covers residues 3-80 (lacks only the first two N-terminal residues; C-terminal residue Arg80); Helical polymer of many copies; also called the needle; PrgI_(3–80); source: non-flagellated ΔPrgI Salmonella Typhimurium complemented with PrgI and hilA on pBAD plasmid; filaments removed by vigorous stirring, …) MATPWSGYLDDVSAKFDTGVDNLQTQVTEALDKLAAKPSDPALLAAYQSKLSEYNLYRNAQSNTVKVFKDIDAAIIQNFR | binds | – | – | –
PrgI (needle protein) in the purified needle complex (natural protein, UniProt P41784 1-80, looked up, PrgI, needle protein of the Salmonella Typhimurium SPI-1 type III secretion system, as part of the native needle complex; Not resolved at high resolution inside the needle complex; the model of the isolated needle was fitted into the C1 map; also called the needle; needle filament; source: endogenous, ΔflhD Salmonella SL1344 with HilA on a pBAD plasmid; needle complex purified (LDAO lysis, …)) MATPWSGYLDDVSAKFDTGVDNLQTQVTEALDKLAAKPSDPALLAAYQSKLSEYNLYRNAQSNTVKVFKDIDAAIIQNFR | – | binds | – | –
B1 | – | binds | 24 | –
B2 | – | – | 15 | –
PrgK (inner membrane ring protein) in the purified needle complex (natural protein, PrgK, Salmonella Typhimurium SPI-1 type III secretion system, native protein in the needle complex; Native protein stood in the sample; only 20-203 was modelled; also called PrgK_(20–203); IM rings; source: endogenous, ΔflhD Salmonella SL1344 with HilA on a pBAD plasmid; needle complex purified (LDAO lysis, centrifugation, CsCl gradient, Superose 6); copies: 24) CKDKDLLKGLDQEQANEVIAVLQMHNIEANKIDSGKLGYSITVAEPDFTAAVYWIKTYQLPPRPRVEIAQMFPADSLVSSPRAEKARLYSAIEQRLEQSLQTMEGVLSARVHISYDIDAGENGRPPKPVHLSALAVYERGSPLAHQISDIKRFLKNSFADVDYDNISVVLSERSDAQLQAPGTPVKRNSFATSWIVLIILLSVMSAGFGVWYYKNHYARNKKGITADDKAKSSNE | – | – | 24 | binds
